Test results: US20060147378A1, “Azulene dimer-quenched, near-infrared fluorescent probes” (priority 2002, published 2006)
Where no end group is shown, it is not given here. Alexa‑680 maleimide = near-infrared fluorochrome (Ex 679 nm, Em 702 nm) reacted with the cysteine; NIRQ750 = not defined here

What was measured:
[1] = test system: T1, NIRQ750-GDEVDGSGC-Alexa-680 caspase-3 substrate probe
T1 sequence: GDEVDGSGC

[2] = target: T2, caspase-3 (Homo sapiens, UniProt P42574); assay: Activation of NIRF probes by caspase-3 with or without inhibitor; type: biochemical
T2 sequence (P42574 29-175 limits assumed): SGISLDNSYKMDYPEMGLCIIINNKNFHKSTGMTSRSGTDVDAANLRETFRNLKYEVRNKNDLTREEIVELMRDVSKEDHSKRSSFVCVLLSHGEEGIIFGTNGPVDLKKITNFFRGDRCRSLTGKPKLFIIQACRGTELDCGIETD
T2 sequence (P42574 176-277 limits assumed): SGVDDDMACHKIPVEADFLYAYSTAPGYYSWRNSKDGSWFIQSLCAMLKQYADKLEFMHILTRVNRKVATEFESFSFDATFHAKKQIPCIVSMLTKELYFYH
Description: The HPLC purified NIRF probes were tested against caspase-3 with or without an inhibitor of the enzyme in pH7.2 buffer (20 mM PIPES, 100 mM NaCl, 10 mM DTT, 1 mM EDTA, 0.1% CHAPS, 10% sucrose). Within 180 minutes, the fluorescence signal of NIRQ750-probe (probe 6, FIG. 7A) had increased about 4-fold while no activation was observed when the caspase-3 specific inhibitor was present (FIG. 7B). […] As expected, the fluorescence signal of both negative controls, (probe 7, FIG. 7A) with enzyme and probe 6 without enzyme, were remained unchanged.

| Substance | fluorescence signal increase (probe activation by enzymatic cleavage) within 180 minutes [1] | activation (fluorescence signal) with caspase-3 specific inhibitor present ([2]; caspase-3 plus caspase-3 specific inhibitor, pH7.2 buffer) | fluorescence signal without enzyme ([2]; negative control, no enzyme, pH7.2 buffer) | increase of fluorescence signal ([2]; with caspase-3, within 180 minutes, pH7.2 buffer (PIPES, NaCl, DTT, EDTA, CHAPS, sucrose)) |
| --- | --- | --- | --- | --- |
| caspase-3 | had increased about 4-fold | – | – | – |
| probe 6: NIRQ750 anchored to N-terminus of caspase-3 cleavable peptide GDEVDGSGC, Alexa-680 maleimide on the cysteine residue (NIRQ750-GDEVDGSGC(Alexa‑680 maleimide); not fully specified (C-terminus); reading uncertain) | – | no activation | unchanged | about 4 fold |
